Reference: paper PMC6238592

Biological target: human FACT (FAcilitates Chromatin Transcription), full length (human) (UniProt Q9Y5B9)
Test: AUC; SV-AUC, absorbance optics; 1.8 μM FACT incubated with histones at the indicated molar ratios for 10 min at room temperature; 150 mM NaCl, 20 mM Tris pH 8.0, 1 mM TCEP; 20°C

histone H2A–H2B dimer (no label stated) (from UniProt P06897 1-130; P02281 1-126) (complex)
stoichiometry N (H2A–H2B per FACT): 1
